Results from US12068729B2, “Anti-factor XII/XIIa antibodies and uses thereof” (Regeneron Pharmaceuticals, Inc., priority 2018, dated 2024).

Columns and labels:
[1] = tested on: thrombin generated via the Extrinsic and Common pathways; assay: Thrombin Generation Assay (TGA) triggered by Tissue Factor; assay type: biochemical, human; settings: Extrinsic Pathway Activation with Tissue Factor; dash cells; dose up to 500 nM
Excerpt: (§1) This Example describes the inhibitory activity of selected antibodies, as determined by four functional plasma assays: 1) Activated Partial Thromboplastin Time (aPTT), 2) Prothrombin Time (PT), 3) Thrombin Generation Assay (TGA) triggered by ellagic acid and 4) TGA triggered by Tissue Factor. The aPTT test evaluates all clotting factors of the Intrinsic and Common pathways of the coagulation cascade by measuring time for a clot to form after the addition of calcium and ellagic acid, whereas the PT test evaluates all clotting factors of the Extrinsic and Common pathways of the coagulation cascade after the addition of calcium and Tissue Factor. The TGA triggered by ellagic acid measures the rate and amount of thrombin generated via the Intrinsic and Common pathways whereas TGA triggered by Tissue Factor measures the rate and amount of thrombin generated via the Extrinsic and Common pathways.
The thrombin generation profile was determined in a Thermo Scientific Hemker Thrombinoscope in the following manner: A total of 55 ul of pooled normal human plasma was added to a well of a microplate at 37° C. Then 5 ul of a 2× serially diluted test article (antibody or small molecule inhibitor) in PBS was added to the well of the microplate and allowed to incubate for 30 min. 15 ul of Tissue Factor PPP Reagent (Diagnostica Stago) was added to the well and allowed to incubate for 45 min. Then 15 ul of Fluo Flu Cal substrate (Diagnostica Stago) was added immediately before a continuous 90 min reading of the microplate. The measured real-time thrombin concentration values were plotted against time to yield a thrombogram profile for each concentration of the test article used.

[2] = tested on: thrombin generated via the Intrinsic and Common pathways; assay: Thrombin Generation Assay (TGA) triggered by ellagic acid; assay type: biochemical, human; settings: Intrinsic Pathway Activation with Ellagic Acid
Excerpt: as §1
The thrombin generation profile was determined in a Thermo Scientific Hemker Thrombinoscope in the following manner: A total of 55 ul of pooled normal human plasma was added to a well of a microplate at 37° C. Then 5 ul of a 2× serially diluted test article (antibody or small molecule inhibitor) in PBS was added to the well of the microplate and allowed to incubate for 30 min. 15 ul of APPT-XL Ellagic Acid (Thermo Scientific) was diluted in MP reagent then added to the well and allowed to incubate for 45 min. Then 15 ul of Fluo Flu Cal substrate (Diagnostica Stago) was added immediately before a continuous 90 min reading of the microplate. The measured real-time thrombin concentration values were plotted against time to yield a thrombogram profile for each concentration of the test article used.

human FXII = biological target: T1, human FXII (Homo sapiens, UniProt P00748); assay: Surface plasmon resonance (Biacore 4000) binding kinetics, hFXII
T1 construct: plasma purified human FXII and FXIIa proteins (Enzyme Research Laboratories); purchased Enzyme Research Laboratories 1212; host or cells: human plasma (said of the same vendor's proteins used as immunogen)
T1 sequence (P00748 20-615): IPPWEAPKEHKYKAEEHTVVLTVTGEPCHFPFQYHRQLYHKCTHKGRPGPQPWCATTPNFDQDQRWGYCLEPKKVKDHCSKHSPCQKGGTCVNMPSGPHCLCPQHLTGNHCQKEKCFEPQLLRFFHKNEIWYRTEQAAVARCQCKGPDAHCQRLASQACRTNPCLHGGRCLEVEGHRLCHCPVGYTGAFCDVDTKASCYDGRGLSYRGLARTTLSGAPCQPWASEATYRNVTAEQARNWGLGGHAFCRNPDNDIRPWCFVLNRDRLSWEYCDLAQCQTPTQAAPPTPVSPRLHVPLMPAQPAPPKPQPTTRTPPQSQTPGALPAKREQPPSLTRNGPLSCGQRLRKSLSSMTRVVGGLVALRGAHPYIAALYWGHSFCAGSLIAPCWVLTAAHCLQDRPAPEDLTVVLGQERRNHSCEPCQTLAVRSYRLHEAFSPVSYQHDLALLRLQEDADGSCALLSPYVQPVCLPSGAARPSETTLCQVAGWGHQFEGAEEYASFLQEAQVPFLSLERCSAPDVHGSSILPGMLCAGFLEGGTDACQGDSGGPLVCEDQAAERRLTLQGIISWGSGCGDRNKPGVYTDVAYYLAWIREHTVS

[3] = tested on: Extrinsic and Common pathways of the coagulation cascade; assay: Prothrombin Time (PT) in pooled normal human plasma; assay type: biochemical; settings: for C2xt of Prothrombin Time (PT) - Extrinsic Pathway: dash cells, dose up to 4 uM; for effect on plasma PT (in words): dose response curves, pooled normal human plasma
Excerpt: as §1
The PT was determined on Diagnostica Stago STart4 Hemostasis Analyzer in the following manner. A total of 50 ul of pooled normal human plasma was added to a cuvette at 37° C. After 1 min, 5 ul of a 2× serially diluted test article (antibody or small molecule inhibitor) in PBS was added to the cuvette and allowed to incubate for 5 min. Then 100 ul of Tissue Factor (TriniCLOT PT Excel, Diagnostica Stago) was added to start the reaction. The measured clot time for the test article concentration was normalized to baseline (no drug) plasma clot time and plotted against log molar concentration of the test article. The results were analyzed using nonlinear regression (4-parameter logistics) with Prism 5 software (GraphPad) to obtain doubling time concentration.

human FXIIa = biological target: T2, human FXIIa (Homo sapiens, UniProt P00748); assay: Surface plasmon resonance (Biacore 4000) binding kinetics, hFXIIa
T2 construct: Factor XIIa, a beta-globulin plasma serine protease composed of an amino-terminal heavy chain and a carboxy-terminal light chain; purchased Enzyme Research Laboratories 1212a; host or cells: human plasma (said of the same vendor's proteins used as immunogen)
T2 sequence (P00748 20-372 limits assumed): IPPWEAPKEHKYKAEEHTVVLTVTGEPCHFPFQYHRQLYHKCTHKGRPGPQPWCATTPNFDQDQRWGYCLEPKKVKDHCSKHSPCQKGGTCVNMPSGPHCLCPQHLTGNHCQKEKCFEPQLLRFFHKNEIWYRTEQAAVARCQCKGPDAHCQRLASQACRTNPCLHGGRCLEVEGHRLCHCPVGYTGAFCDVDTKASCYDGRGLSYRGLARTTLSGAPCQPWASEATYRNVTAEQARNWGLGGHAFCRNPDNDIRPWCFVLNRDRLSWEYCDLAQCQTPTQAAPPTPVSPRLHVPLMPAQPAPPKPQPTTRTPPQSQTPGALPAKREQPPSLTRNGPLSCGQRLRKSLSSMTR
T2 sequence (P00748 373-615 limits assumed): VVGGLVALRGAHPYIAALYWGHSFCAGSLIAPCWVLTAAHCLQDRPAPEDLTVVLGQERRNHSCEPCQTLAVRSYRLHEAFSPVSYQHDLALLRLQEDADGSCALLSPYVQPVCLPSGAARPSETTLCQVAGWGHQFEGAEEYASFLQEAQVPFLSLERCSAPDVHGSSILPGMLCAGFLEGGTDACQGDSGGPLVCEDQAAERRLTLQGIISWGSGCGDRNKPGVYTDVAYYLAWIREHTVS

| Molecule | Concentration required for ↑ lag time by 2× [1] | Concentration required for ↓ endogenous thrombin potential by ½ [1] | Concentration required for ↓ thrombin peak by ½ [1] | Concentration required for ↑ lag time by 2× [2] [nM] | Concentration required for ↓ endogenous thrombin potential by ½ [2] [nM] | Concentration required for ↓ thrombin peak by ½ [2] [nM] | 100 nM Ag Bound (RU) (human FXII; 25° C.) | 100 nM Ag Bound (RU) (human FXII; 37° C.) | C2xt of Prothrombin Time (PT) - Extrinsic Pathway [3] | effect on plasma PT (in words) [3] | 100 nM Ag Bound (RU) (human FXIIa; 25° C.) | 100 nM Ag Bound (RU) (human FXIIa; 37° C.) |
| --- | --- | --- | --- | --- | --- | --- | --- | --- | --- | --- | --- | --- |
| mAb26048: fully human anti-FXII/FXIIa monoclonal antibody, HCVR/LCVR SEQ ID NOs: 18/26 (antibody, V domains shown) VH: EVQLVESGGGLVQPRGSLRLSCVASGFTFSDYGMSWVRQAPGKGLEWVSVIGGAGHGTYYADSVKGRFTISRDNSRNTLYLQMNSLRDEDTAVYYCAKKYYWNYVGGMDVWGRGTTVTVSS VL: DIQMTQSPSSVSASVGDRVTITCRASQDINNWLAWYQQKPGKAPKLLISTASSLQSGVPSRFSGSGSGTDFTLTISSLQPEDFATYYCQQANSLPFTFGPGTKVDIK | — (no effect on thrombin generation with a dose up to 500 nM) | — (no effect on thrombin generation with a dose up to 500 nM) | — (no effect on thrombin generation with a dose up to 500 nM) | 150 | 250 | 250 | 327.5 | 400.6 | — (no inhibitory effect on clotting time with a dose up to 4 uM) | without increasing PT | 267.8 | 335.6 |
| mAb26036: fully human anti-FXII/FXIIa monoclonal antibody, HCVR/LCVR SEQ ID NOs: 2/10 (antibody, V domains shown) VH: QVQLVQSGAEVKKPGASVTVSCKASGYTFTSYYLHWVRQAPGQGLEWMGIINPSGGSTSYAQKFQGRVTMTRDTSTSTVYMELSSLRSEDTAVYYCARGVTTVTTYYHYYNMDVWGQGTTVTVSS VL: DIQMTQSPSSLSASVGDRVTITCRASQGISNYLAWFQQKPGKAPKSLIYAASSLQSGVPSKFSGSGSGTDFTLTISSLQPEDFATYYCQKYNTYPLTFGGGTKVEIK | — (no effect on thrombin generation with a dose up to 500 nM) | — (no effect on thrombin generation with a dose up to 500 nM) | — (no effect on thrombin generation with a dose up to 500 nM) | 175 | 250 | 250 | 146.2 | 272.3 | — (no inhibitory effect on clotting time with a dose up to 4 uM) | without increasing PT | 89.9 | 166.52 |
| mAb26049: fully human anti-FXII/FXIIa monoclonal antibody, HCVR/LCVR SEQ ID NOs: 34/42 (antibody, V domains shown) VH: EVQLVESGGDLVQPGGSLRLSCAASGFTFNTYAMHWVRQAPGKGLEYISAIDTKGGSTYYADSVKGRFTISRDNSKNAQYLQMDSLRVEDMAVYYCARGFGLDVWGQGTTVTVSS VL: DVVMTQSPLSLAVTLGQPASISCRSSQSLGYSDGNTYLNWFQQRPGQSPRRLIYKVSNRDSGVPDRFSGSGSGTDFTLKINRVETVDVGVYYCMQATHWPYTFGQGTKLEIK | — (no effect on thrombin generation with a dose up to 500 nM) | — (no effect on thrombin generation with a dose up to 500 nM) | — (no effect on thrombin generation with a dose up to 500 nM) | 200 | 250 | 250 | 134.6 | 178.5 | — (no inhibitory effect on clotting time with a dose up to 4 uM) | without increasing PT | 162.4 | 251.5 |
